Data published in patent publication US20240294895A1, “ENZYMATIC COMPOSITIONS FOR CARBOHYDRATE ANTIGEN CLEAVAGE ON DONOR ORGANS, METHODS AND USES ASSOCIATED THEREWITH” (THE UNIVERSITY OF BRITISH COLUMBIA, priority 2018, published 2024).

Assays:
Assay in all cases: Kinetic parameters of FpGalNAcDeAc full length (coupled fluorescence assay, MU release)
Assay type in all cases: biochemical, Flavonifractor plautii
Conditions in all cases: other: 100 mM NaH2PO4, pH 7.4, 37° C.
[1] = substrate: CC(=O)N[C@H]1[C@@H](O[C@H]2[C@@H](O)[C@@H](CO)O[C@@H](O[C@H]3[C@H](O)[C@@H](CO)O[C@@H](O[C@H]4[C@@H](O)[C@@H](CO)O[C@@H](Oc5ccc6c(C)cc(=O)oc6c5)[C@@H]4O)[C@@H]3NC(C)=O)[C@@H]2O[C@@H]2O[C@@H](C)[C@@H](O)[C@@H](O)[C@@H]2O)O[C@H](CO)[C@H](O)[C@@H]1O
Protocol: (§1) All kinetic assays utilizing 4-methylumbelliferone as leaving group were performed through measurement of fluorescence. To avoid measurement errors based on the inner filter effect (Palmier 2007) standard curves were used to validate the linear range of the fluorophore.
(§2) Michaelis-Menten parameters were determined for A antigen subtype 1penta-MU in 100 mM NaH2PO4, pH 7.4 at 37° C. using the coupled assays described previously (Kwan 2015). The assay was modified to allow detection of cleavage of the subtype 1 (and later 4), by use of BgaC (Jeong 2009) instead of BgaA (Singh 2014) as β-galactosidase. In addition, since A antigen subtype 1penta-MU contains an additional galactose, the concentration of BgaC was increased to 0.2 mg/mL to compensate for its need to cleave both the Gal-β-1,3-B-GlcNAc-β-1,3-Gal-β-MU and Gal-β-MU. Further, FpGalactosaminidase was included to allow the cleavage of the galactosamine-containing intermediate. Reaction setup in 100 μl was 3 nM FpGalNacDeacetylase (4.52 nM FpGalNacDeAc_D1ext, 3.55 nM FpGalNacDeAc_D1+2) and 0.01 mg/mL FpGalactosaminidase, 0.1 mg/mL SpHex, AfcA, 0.2 mg/mL BgaC and varying concentrations of substrate (5 μM-2.5 mM). The reactions were run as a series of four with controls (no FpGalNacDeacetylase) as duplicates. The fluorescence signal (365/435 nm) resulting from MU release by hydrolysis was monitored on a Synergy H1™ plate reader (BioTek™) and converted to concentration using MU standard concentration curves determined under identical reaction conditions. Initial rates (μM/s) were determined and plotted in Grafit 7.0 to determine the kinetic parameters.
(§3) kcat/KM parameter were determined for A antigen subtype 1/2/4tetra-MU at pH 7.4 at 37° C. Reactions (total volume of 100 μL) were performed in black 96-plate wells and as coupled assays in 100 mM NaH2PO4 (pH 7.4) with 12 nM FpGalNAcDeacetylase 0.1 mg/mL SpHex, BgaC (BgaA for subtype II), AfcA, at varying concentrations of substrate (25 μM, 20 μM, 15 μM, 10 μM, 7.5 μM, 5 μM). The reactions were run as a series of four with controls (no FpGalNAcDeacetylase) as duplicates. The fluorescence signal (365/435 nm) resulting from MU release by hydrolysis was monitored on a Synergy H1™ plate reader (BioTek™) and converted to concentration using MU standard concentration curves determined under identical reaction conditions. Initial rates (μM/s) were determined and plotted in Grafit™ 7.0 to determine the kcat/KM (s^−1*mM^−1) parameters.

[2] = substrate: CC(=O)N[C@H]1[C@@H](O[C@H]2[C@@H](O)[C@@H](CO)O[C@@H](O[C@H]3[C@@H](O)[C@@H](CO)O[C@@H](Oc4ccc5c(C)cc(=O)oc5c4)[C@@H]3NC(C)=O)[C@@H]2O[C@@H]2O[C@@H](C)[C@@H](O)[C@@H](O)[C@@H]2O)O[C@H](CO)[C@H](O)[C@@H]1O
Protocol: as §1, §2, §3

[3] = substrate: CC(=O)N[C@H]1[C@H](Oc2ccc3c(C)cc(=O)oc3c2)O[C@H](CO)[C@@H](O[C@@H]2O[C@H](CO)[C@H](O)[C@H](O[C@H]3O[C@H](CO)[C@H](O)[C@H](O)[C@H]3NC(C)=O)[C@H]2O[C@@H]2O[C@@H](C)[C@@H](O)[C@@H](O)[C@@H]2O)[C@@H]1O
Protocol: as §1, §2, §3

[4] = substrate: CC(=O)N[C@H]1[C@@H](O[C@H]2[C@@H](O)[C@@H](CO)O[C@@H](O[C@H]3[C@H](O)[C@@H](CO)O[C@@H](Oc4ccc5c(C)cc(=O)oc5c4)[C@@H]3NC(C)=O)[C@@H]2O[C@@H]2O[C@@H](C)[C@@H](O)[C@@H](O)[C@@H]2O)O[C@H](CO)[C@H](O)[C@@H]1O
Protocol: as §1, §2, §3

B1: Flavonifractor plautii GalNAcDeacetylase (FpGalNAcDeAc), full length, SEQ ID NO: 2, 4, 5 (Flavonifractor plautii) (protein)
chain: MGHHHHHHHHHHSSGADSSESALNKAPGYQDFPAYYSDSAHADDQVTHPDVVVLEEPWNGYRYWAVYTPNVMRISIYENPSIVASSDGVHWVEPEGLSNPIEPQPPSTRYHNCDADMVYNAEYDAMMAYWNWADDQGGGVGAEVRLRISYDGVHWGVPVTYDEMTRVWSKPTSDAERQVADGEDDFITAIASPDRYDMLSPTIVYDDFRDVFILWANNTGDVGYQNGQANFVEMRYSDDGITWGEPVRVNGFLGLDENGQQLAPWHQDVQYVPDLKEFVCISQCFAGRNPDGSVLHLTTSKDGVNWEQVGTKPLLSPGPDGSWDDFQIYRSSFYYEPGSSAGDGTMRVWYSALQKDTNNKMVADSSGNLTIQAKSEDDRIWRIGYAENSFVEMMRVLLDDPGYTTPALVSGNSLMLSAETTSLPTGDVMKLETSFAPVDTSDQVVKYTSSDPDVATVDEFGTITGVSVGSARIMAETREGLSDDLEIAVVENPYTLIPQSNMTATATSVYGGTTEGPASNVLDGNVRTIWHTNYAPKDELPQSITVSFDQPYTVGRFVYTPRQNGTNGIISEYELYAIHQDGSKDLVASGSDWALDAKDKTVSFAPVEAVGLELKAIAGAGGFGTAAELNVYAYGPIEPAPVYVPVDDRDASLVFTGAWNSDSNGSFYEGTARYTNEIGASVEFTFVGTAIRWYGQNDVNFGAAEVYVDGVLAGEVNVYGPAAAQQLLFEADGLAYGKHTIRIVCVSPVVDFDYFSYVGE
B1 was tested, and the Km [1] was 340 ± 35 µM, the kcat [1] was 4.86 s⁻¹ and the kcat/Km [1] was 14.28 s⁻¹ mM⁻¹. For the same protein, the kcat/Km [2] was 33.27 ± 2.08 s⁻¹ mM⁻¹, the kcat/Km [3] was 23.37 ± 0.71 s⁻¹ mM⁻¹ and the kcat/Km [4] was 23.49 ± 0.63 s⁻¹ mM⁻¹.
